What all share (test): cell_activity
One data set concerns ZFN 28405 (synthetic). The note with it: pair with 28406, HEK293.
Another data set has as its system ZFN 15487 (synthetic). The note with it: pair with 15486, K562; approx 1% in RAJI.
The test system of another data set is ZFN 15910 (synthetic). The note with it: pair with 15909, EL/KK FokI, K562; 6 and 11% with wt FokI.
The next data set has as its system ZFN 28386 (synthetic). The following applies: pair with 28385, HEK293.
For another data set, the system named is ZFN 28393 (synthetic). The note with it: pair with 28394, HEK293.
Another data set concerns ZFN 24859 (synthetic). The note with it: pair with 18889, HLA A2, HEK293; A3 allele 10%.
In the next data set the test system is ZFN 15507 (synthetic). The following applies: pair with 15506, K562.
For the next data set, the system named is ZFN 28385 (synthetic). The following applies: pair with 28386, HEK293.
For a further data set, the system named is ZFN 15872 (synthetic). The following applies: pair with 15873, wt FokI, K562; approx 28% with EL/KK.
For another data set, the system named is ZFN 25539 (synthetic). The note with it: pair with 25540, 10 ug mRNA, primary T cells; background 2.4%.
Another data set relates to ZFN 25540 (synthetic). The following applies: pair with 25539, 10 ug mRNA, primary T cells; background 2.4%.
The test system of a further data set is ZFN 28394 (synthetic). The following applies: pair with 28393, HEK293.
The next data set has as its system ZFN 18881 (synthetic). The following applies: pair with 18889, HLA A2, HEK293; A3 allele 9%.
Another data set deals with ZFN 28404 (synthetic). The following applies: pair with 28403, HEK293.
Another data set deals with ZFN 15506 (synthetic). The following applies: pair with 15507, K562.
Another data set relates to ZFN 18889 (synthetic). The following applies: pair with 24859, HLA A2, HEK293; with 18881 approx 3%; A3 allele 10% and 9%.
For another data set, the system named is ZFN 28403 (synthetic). The note with it: pair with 28404, HEK293.
Another data set relates to ZFN 15909 (synthetic). The following applies: pair with 15910, EL/KK FokI, K562; 6 and 11% with wt FokI.
The test system of a further data set is ZFN 16787 (synthetic). The note with it: pair with 16783, 10 ug mRNA, primary T cells; background 2.4%.
In a further data set the test system is ZFN 28406 (synthetic). The note with it: pair with 28405, HEK293.
In the next data set the test system is ZFN 15873 (synthetic). The following applies: pair with 15872, wt FokI, K562; approx 28% with EL/KK.

As to “CGCAAGAGGCTGGAGAGGCTGAGGACTG (double strand) [28405 site]”, the activity (% gene modification) in the data set on ZFN 28405 (synthetic) was found to be 34.

“CTACTCGGGCCATCGGCGGCTGCCTCGG (double strand) [15487 site]” showed an activity (% gene modification) with ZFN 15487 (synthetic) of 15.

For “GCGGGGGAAAGAGAGGAGGAGAGAAGGA (double strand) [15910 site]”, the activity in the data set on ZFN 15910 (synthetic) turned out to be 14 % NHEJ.

“AGAAGGCTGTGGGCTCCTCAGAGAAAAT (double strand) [28386 site]” came in with an activity (% gene modification) in the data set with ZFN 28386 (synthetic) of 39.

In turn, “TTGATTCGAGACATGGTGTAGGTGAAGC (double strand) [28393 site]” showed an activity (% gene modification) in the data set on ZFN 28393 (synthetic) of 49.

Take “TCCTCTGGACGGTGTGAGAACCTGGCCC (double strand) [24859 site]”: the activity in the data set with ZFN 24859 (synthetic) amounted to 6 % NHEJ.

In the data set on ZFN 15507 (synthetic), “GCTCGAAGGCTTGGTGGCCGGGGCCAGT (double strand) [15507 site]” yielded an activity (% gene modification) of 2.

As for “ACTCTGGGGTAGATGGAGAGCAGTACCT (double strand) [28385 site]”, the activity (% gene modification) in the data set with ZFN 28385 (synthetic) stood at 39.

Consider “GAAATAAGGCATACTGGTATTACTAATG (double strand) [15872 site]”, for which the activity with ZFN 15872 (synthetic) was 13 % NHEJ.

“TTGTTGCTCCAGGCCACAGCACTGTTGC (double strand) [25539 site]” came in with an activity (% CD3-negative cells) in the data set with ZFN 25539 (synthetic) of 28.1.

“CTGACTTTGCATGTGCAAACGCCTTCAA (double strand) [25540 site]” had an activity (% CD3-negative cells) in the data set with ZFN 25540 (synthetic) of 28.1.

In the data set with ZFN 28394 (synthetic), “TTGCGGATCCGGGAGCAGCTTTTCTCCT (double strand) [28394 site]” came in with an activity (% gene modification) of 49.

In the case of “TTATCTGGATGGTGTGAGAACCTGGCCC (double strand) [18881 site]”, the activity in the data set on ZFN 18881 (synthetic) stood at 3 % NHEJ.

“CTGGATGGGGCTTGGCTGATGGTCAGCA (double strand) [28404 site]”: the activity (% gene modification) in the data set with ZFN 28404 (synthetic) was determined as 64.

Sequence “TTGATGTCAGGGAAGATCTCTCTGATGA (double strand) [15506 site]” displayed an activity (% gene modification) in the data set with ZFN 15506 (synthetic) of 2.

In the data set with ZFN 18889 (synthetic), “GTATGGCTGCGACGTGGGGTCGGACGGG (double strand) [18889 site]” showed an activity of 6 % NHEJ.

“GCCCGCGGGCAGTTCTGCGCGGGGGTCA (double strand) [28403 site]” returned an activity (% gene modification) in the data set with ZFN 28403 (synthetic) of 64.

“TCTCCCAGGGTGGTTCAGTGGCAGAATT (double strand) [15909 site]”: in the data set on ZFN 15909 (synthetic), the activity is 14 % NHEJ.

In the data set with ZFN 16787 (synthetic), “TCTCGGAGAATGACGAGTGGACCCAGGA (double strand) [16787 site]” gave an activity (% CD3-negative cells) of 9.4.

In the case of “CCACAGCCAGAGCCTCAGCAGGAGCCTG (double strand) [28406 site]”, the activity (% gene modification) in the data set with ZFN 28406 (synthetic) was found to be 34.

“GAGGAGAGCAGGCCGATTACCTGACCCA (double strand) [15873 site]” came in with an activity in the data set on ZFN 15873 (synthetic) of 13 % NHEJ.

(Values after US20120060230.)
